Test results published in publication PMC5498717, “Linking functions: an additional role for an intrinsically disordered linker domain in the transcriptional coactivator CBP” (Scientific Reports, 2017).

Biological target: the molecule itself
Assay: cross-linking; BS3 0.25 mM, 15 min at RT in PBS with 1 mM DTT, proteins mixed about 1:1; SDS-PAGE, anti-His and anti-GST Western blots

B1: ZFP106-f (residues 1265-1521 of ZFP106), His-tagged (domain or fragment, human, UniProt Q9H2Y7 1265-1521, looked up)
chain: KFSVEQRNTRNRENSPSSQSAGLSSINKEGEEPTKGNSGSEACTSSFLRLSFASETPLEKEPHSPADQPEQQAESTLTSAETRGSKKKKKLRKKKSLRAAHVPENSDTEQDVLTVKPVRKVKAGKLIKGGKVTTSTWEDSRTGREQESVRDEPDSDSSLEVLEIPNPQLEVVAIDSSESGEEKPDSPSKKDIWNSTEQNPLETSRSGCDEVSSTSEIGTRYKDGIPVSVAETQTVISSIKGSKNSSEISSEPGDDDE
notes: The His tag is named for the cross-linking and detected by anti-His blot there and in the acetylation assays; also called wt ZFP106-f; His-tagged ZFP106-f
- stoichiometry N: 2
